Columns and labels:
Experiment in all cases: holdup assay
Set-up in all cases: key: below the threshold = too weak to quantify, mostly under pKd 3.1 to 4
ARHGEF11, O15085 = biological target: T1, ARHGEF11, O15085
T1 sequence (O15085 42-136, limits assumed, looked up): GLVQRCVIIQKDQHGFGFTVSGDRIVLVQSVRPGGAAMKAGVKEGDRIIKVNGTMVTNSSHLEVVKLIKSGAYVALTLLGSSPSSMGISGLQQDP

PTPN13_1, Q12923 = biological target: T2, PTPN13_1, Q12923
T2 sequence (Q12923 1088-1188, limits assumed, looked up): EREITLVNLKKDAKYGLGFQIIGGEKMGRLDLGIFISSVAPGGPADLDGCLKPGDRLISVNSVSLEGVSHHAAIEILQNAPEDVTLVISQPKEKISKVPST

RAPGEF6, Q8TEU7 = biological target: T3, RAPGEF6, Q8TEU7
T3 sequence (Q8TEU7 525-625, limits assumed, looked up): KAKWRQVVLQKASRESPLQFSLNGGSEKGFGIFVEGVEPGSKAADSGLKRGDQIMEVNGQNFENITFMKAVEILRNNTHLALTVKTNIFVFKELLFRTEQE

RADIL, Q96JH8 = biological target: T4, RADIL, Q96JH8
T4 sequence (Q96JH8 971-1071, limits assumed, looked up): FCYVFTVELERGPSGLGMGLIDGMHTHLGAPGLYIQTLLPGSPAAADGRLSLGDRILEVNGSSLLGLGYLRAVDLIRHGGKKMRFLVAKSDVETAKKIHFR

MAGI1_2, Q96QZ7 = biological target: MAGI1_2, Q96QZ7
Sequence of MAGI1_2, Q96QZ7 (Q96QZ7 456-580): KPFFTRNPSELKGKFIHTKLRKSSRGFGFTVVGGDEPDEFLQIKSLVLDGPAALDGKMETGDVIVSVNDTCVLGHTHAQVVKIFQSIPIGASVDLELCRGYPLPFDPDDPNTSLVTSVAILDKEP

IL16_4, Q14005 = biological target: IL16_4, Q14005
Sequence of IL16_4, Q14005 (Q14005 1229-1329): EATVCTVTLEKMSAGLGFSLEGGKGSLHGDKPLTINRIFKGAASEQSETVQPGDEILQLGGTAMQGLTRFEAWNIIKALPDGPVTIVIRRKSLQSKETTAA

CARD11, Q9BXL7 = biological target: T5, CARD11, Q9BXL7
T5 sequence (Q9BXL7 662-765, limits assumed, looked up): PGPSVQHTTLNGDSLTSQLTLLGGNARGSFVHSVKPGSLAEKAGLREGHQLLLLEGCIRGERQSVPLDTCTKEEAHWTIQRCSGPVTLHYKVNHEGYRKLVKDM

ARHGAP21, Q5T5U3 = biological target: T6, ARHGAP21, Q5T5U3
T6 sequence (Q5T5U3 45-169, limits assumed, looked up): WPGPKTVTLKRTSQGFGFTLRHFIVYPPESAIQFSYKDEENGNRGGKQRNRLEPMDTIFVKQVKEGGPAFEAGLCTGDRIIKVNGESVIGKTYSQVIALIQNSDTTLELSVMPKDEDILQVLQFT

MPDZ_10, O75970 = biological target: T7, MPDZ_10, O75970
T7 sequence (O75970 1624-1722, limits assumed, looked up): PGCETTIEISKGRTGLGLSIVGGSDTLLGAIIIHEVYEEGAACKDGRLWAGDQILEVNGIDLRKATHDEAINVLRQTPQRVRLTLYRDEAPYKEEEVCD

LIN7C, Q9NUP9 = biological target: T8, LIN7C, Q9NUP9
T8 sequence (Q9NUP9 88-185, limits assumed, looked up): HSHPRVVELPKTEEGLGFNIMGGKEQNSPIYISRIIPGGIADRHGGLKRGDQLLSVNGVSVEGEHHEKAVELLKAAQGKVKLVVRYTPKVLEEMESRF

GIPC2, Q8TF65 = biological target: GIPC2, Q8TF65
Sequence of GIPC2, Q8TF65 (Q8TF65 112-203): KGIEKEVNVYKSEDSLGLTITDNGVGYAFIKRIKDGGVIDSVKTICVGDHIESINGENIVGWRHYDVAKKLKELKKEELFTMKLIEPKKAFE

Inadl_2, Q8NI35 = biological target: Inadl_2, Q8NI35
Sequence of Inadl_2, Q8NI35 (Q8NI35 238-335): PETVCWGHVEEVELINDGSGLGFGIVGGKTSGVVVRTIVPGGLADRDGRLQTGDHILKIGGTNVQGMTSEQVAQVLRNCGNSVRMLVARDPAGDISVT

Inadl_6, Q8NI35 = biological target: Inadl_6, Q8NI35
Sequence of Inadl_6, Q8NI35 (Q8NI35 1058-1167): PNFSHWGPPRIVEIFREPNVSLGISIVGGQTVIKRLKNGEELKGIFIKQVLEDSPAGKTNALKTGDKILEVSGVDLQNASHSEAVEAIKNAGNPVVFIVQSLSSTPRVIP

PTPN3, P26045 = biological target: PTPN3, P26045
Sequence of PTPN3, P26045 (P26045 505-587): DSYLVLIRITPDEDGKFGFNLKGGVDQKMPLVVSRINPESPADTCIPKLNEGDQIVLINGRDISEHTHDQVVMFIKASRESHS

DVL3, Q92997 = biological target: T9, DVL3, Q92997
T9 sequence (Q92997 244-331, limits assumed, looked up): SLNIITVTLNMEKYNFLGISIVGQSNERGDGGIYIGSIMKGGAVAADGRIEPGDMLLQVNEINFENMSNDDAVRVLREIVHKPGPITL

ARHGEF12, Q9NZN5-2 = biological target: ARHGEF12, Q9NZN5-2
Sequence of ARHGEF12, Q9NZN5-2 (Q9NZN5 other isoform, or with tags, fused parts or gaps): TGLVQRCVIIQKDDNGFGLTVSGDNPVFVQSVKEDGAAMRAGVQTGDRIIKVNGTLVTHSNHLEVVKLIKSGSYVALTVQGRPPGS

MPP6, Q9NZW5 = biological target: T10, MPP6, Q9NZW5
T10 sequence (Q9NZW5 125-219, limits assumed, looked up): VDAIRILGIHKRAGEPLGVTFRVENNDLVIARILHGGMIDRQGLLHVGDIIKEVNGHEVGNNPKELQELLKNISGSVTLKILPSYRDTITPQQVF

GRIP2_5, Q9C0E4 = biological target: GRIP2_5, Q9C0E4
Sequence of GRIP2_5, Q9C0E4 (Q9C0E4 544-642): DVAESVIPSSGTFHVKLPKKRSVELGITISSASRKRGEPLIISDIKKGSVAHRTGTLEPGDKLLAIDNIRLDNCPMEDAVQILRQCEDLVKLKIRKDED

MPDZ_5, O75970 = biological target: T11, MPDZ_5, O75970
T11 sequence (O75970 695-796, limits assumed, looked up): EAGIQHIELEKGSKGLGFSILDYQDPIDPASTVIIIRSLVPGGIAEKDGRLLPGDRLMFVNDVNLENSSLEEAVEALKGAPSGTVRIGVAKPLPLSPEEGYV

HTRA2, O43464 = biological target: HTRA2, O43464
Sequence of HTRA2, O43464 (O43464 355-458): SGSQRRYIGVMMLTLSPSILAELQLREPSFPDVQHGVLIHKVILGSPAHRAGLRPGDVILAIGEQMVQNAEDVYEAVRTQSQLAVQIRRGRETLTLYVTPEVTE

TJP1_3, Q07157 = biological target: TJP1_3, Q07157
Sequence of TJP1_3, Q07157 (Q07157 416-512): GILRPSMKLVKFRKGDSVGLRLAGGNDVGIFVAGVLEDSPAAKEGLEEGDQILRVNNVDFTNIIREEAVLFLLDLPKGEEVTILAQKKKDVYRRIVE

PDLIM1, O00151 = biological target: PDLIM1, O00151
Sequence of PDLIM1, O00151 (O00151 1-87): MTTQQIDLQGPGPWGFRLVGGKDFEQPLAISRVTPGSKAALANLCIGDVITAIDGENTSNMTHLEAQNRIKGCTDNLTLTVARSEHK

NHERF4_4, Q86UT5 = biological target: NHERF4_4, Q86UT5
Sequence of NHERF4_4, Q86UT5 (Q86UT5 464-550): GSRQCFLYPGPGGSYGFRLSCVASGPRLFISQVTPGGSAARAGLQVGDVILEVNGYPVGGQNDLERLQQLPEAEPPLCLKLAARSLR

Inadl_3, Q8NI35 = biological target: Inadl_3, Q8NI35
Sequence of Inadl_3, Q8NI35 (Q8NI35 359-469): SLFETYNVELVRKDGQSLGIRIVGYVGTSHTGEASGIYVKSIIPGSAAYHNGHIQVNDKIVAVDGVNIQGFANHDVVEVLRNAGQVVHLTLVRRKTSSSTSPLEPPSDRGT

SIPA1L2, Q9P2F8 = biological target: T12, SIPA1L2, Q9P2F8
T12 sequence (Q9P2F8 945-1036, limits assumed, looked up): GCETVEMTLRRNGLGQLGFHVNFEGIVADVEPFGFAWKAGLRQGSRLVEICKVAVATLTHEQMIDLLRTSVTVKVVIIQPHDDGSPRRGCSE

[1] = plain residues with an end cap or a label only (N-terminal biotin on a linker: ttds)
[2] = plain residues with an end cap or a label only (N-terminal biotin on a linker: ahx)

B1: HPV59-E6, Q81964 (peptide)
chain: QRQARSETLV
In the case of B1, the pKd (ARHGEF11, O15085; [1]) is reported as “below the threshold”, the pKd (PTPN13_1, Q12923; [1]) is reported as “below the threshold” and the pKd (RAPGEF6, Q8TEU7; [1]) is reported as “below the threshold”. The pKd (RADIL, Q96JH8; [1]) was 4.47, the pKd (MAGI1_2, Q96QZ7; [1]) was 6.04 and the pKd (IL16_4, Q14005; [1]) was “below the threshold”. The pKd (CARD11, Q9BXL7; [1]) was “below the threshold”, the pKd (ARHGAP21, Q5T5U3; [1]) was “below the threshold” and the pKd (MPDZ_10, O75970; [1]) was “below the threshold”. For the same binder, the pKd (LIN7C, Q9NUP9; [1]) was 3.87, the pKd (GIPC2, Q8TF65; [1]) was “below the threshold” and the pKd (Inadl_2, Q8NI35; [1]) was “below the threshold”. The pKd (Inadl_6, Q8NI35; [1]) was “below the threshold”, the pKd (PTPN3, P26045; [1]) was 4.4 and the pKd (DVL3, Q92997; [1]) was “below the threshold”. For the same binder, the pKd (ARHGEF12, Q9NZN5-2; [1]) was “below the threshold”, the pKd (MPP6, Q9NZW5; [1]) was “below the threshold” and the pKd (GRIP2_5, Q9C0E4; [1]) was “below the threshold”. For the same binder, the pKd (MPDZ_5, O75970; [1]) was 3.81, the pKd (HTRA2, O43464; [1]) was “below the threshold” and the pKd (TJP1_3, Q07157; [1]) was “below the threshold”. For the same binder, the pKd (PDLIM1, O00151; [1]) was “below the threshold”, the pKd (NHERF4_4, Q86UT5; [1]) was “below the threshold” and the pKd (Inadl_3, Q8NI35; [1]) was “below the threshold”. The pKd (SIPA1L2, Q9P2F8; [1]) was “below the threshold”.

B2: KCTD3, Q9Y597 (peptide)
chain: SDSSGQEYSL
In the case of B2, the pKd (ARHGEF11, O15085; [2]) is reported as 3.98, the pKd (PTPN13_1, Q12923; [2]) is reported as “below the threshold” and the pKd (RAPGEF6, Q8TEU7; [2]) is reported as “below the threshold”. For the same binder, the pKd (RADIL, Q96JH8; [2]) was “below the threshold”, the pKd (MAGI1_2, Q96QZ7; [2]) was “below the threshold” and the pKd (IL16_4, Q14005; [2]) was “below the threshold”. The pKd (CARD11, Q9BXL7; [2]) was “below the threshold”, the pKd (ARHGAP21, Q5T5U3; [2]) was “below the threshold” and the pKd (MPDZ_10, O75970; [2]) was 3.56. For the same binder, the pKd (LIN7C, Q9NUP9; [2]) was “below the threshold”, the pKd (GIPC2, Q8TF65; [2]) was 3.64 and the pKd (Inadl_2, Q8NI35; [2]) was “below the threshold”. The pKd (Inadl_6, Q8NI35; [2]) was “below the threshold”, the pKd (PTPN3, P26045; [2]) was 4.14 and the pKd (DVL3, Q92997; [2]) was “below the threshold”. The pKd (ARHGEF12, Q9NZN5-2; [2]) was “below the threshold”, the pKd (MPP6, Q9NZW5; [2]) was 3.83 and the pKd (GRIP2_5, Q9C0E4; [2]) was “below the threshold”. For the same binder, the pKd (MPDZ_5, O75970; [2]) was “below the threshold”, the pKd (HTRA2, O43464; [2]) was “below the threshold” and the pKd (TJP1_3, Q07157; [2]) was “below the threshold”. The pKd (PDLIM1, O00151; [2]) was “below the threshold”, the pKd (NHERF4_4, Q86UT5; [2]) was “below the threshold” and the pKd (Inadl_3, Q8NI35; [2]) was “below the threshold”. For the same binder, the pKd (SIPA1L2, Q9P2F8; [2]) was “below the threshold”.

B3: SHROOM4, Q9ULL8 (peptide)
chain: ESLLLGPSNF
In the case of B3, the pKd (ARHGEF11, O15085; [2]) is reported as “below the threshold”, the pKd (PTPN13_1, Q12923; [2]) is reported as “below the threshold” and the pKd (RAPGEF6, Q8TEU7; [2]) is reported as “below the threshold”. For the same binder, the pKd (RADIL, Q96JH8; [2]) was “below the threshold”, the pKd (MAGI1_2, Q96QZ7; [2]) was “below the threshold” and the pKd (IL16_4, Q14005; [2]) was “below the threshold”. For the same binder, the pKd (CARD11, Q9BXL7; [2]) was “below the threshold”, the pKd (ARHGAP21, Q5T5U3; [2]) was “below the threshold” and the pKd (MPDZ_10, O75970; [2]) was “below the threshold”. The pKd (LIN7C, Q9NUP9; [2]) was “below the threshold”, the pKd (GIPC2, Q8TF65; [2]) was “below the threshold” and the pKd (Inadl_2, Q8NI35; [2]) was “below the threshold”. The pKd (Inadl_6, Q8NI35; [2]) was “below the threshold”, the pKd (PTPN3, P26045; [2]) was “below the threshold” and the pKd (DVL3, Q92997; [2]) was “below the threshold”. For the same binder, the pKd (ARHGEF12, Q9NZN5-2; [2]) was “below the threshold”, the pKd (MPP6, Q9NZW5; [2]) was “below the threshold” and the pKd (GRIP2_5, Q9C0E4; [2]) was “below the threshold”. The pKd (MPDZ_5, O75970; [2]) was “below the threshold”, the pKd (HTRA2, O43464; [2]) was “below the threshold” and the pKd (TJP1_3, Q07157; [2]) was “below the threshold”. For the same binder, the pKd (PDLIM1, O00151; [2]) was “below the threshold”, the pKd (NHERF4_4, Q86UT5; [2]) was “below the threshold” and the pKd (Inadl_3, Q8NI35; [2]) was 3.59. For the same binder, the pKd (SIPA1L2, Q9P2F8; [2]) was “below the threshold”.
